B1: SFRS1 (parent)
chain: YSPRRSRGSPRYSPRHSRSRSRT
B2: TPD52L2 (parent)
chain: EAEEEELRAELTKVEEEIVTLRQV

Variants of: B1
Experiment: protein stability index of a GFP-peptide fusion (GPS, HEK-293T) (PSI 1-6); higher = more stable
Settings: c terminus: native
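Also: lentivirally expressed fusions sorted by FACS into six bins by GFP to DsRed ratio, PSI derived from sequencing read proportions per bin multiplied by bin number.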

Protein stability index of substitutions, site by site:
P3: N 4.15
G8: L 3
Y1: W 4.08; S 4.36
Y12: R 4.25; F 3.7; W 4.43
R22: N 3.46; F 3.58; A 2.02; H 4.14; M 3.8
S13: H 3.62; Y 3.13
P10: T 4.51; E 3.6
R5: M 3.58; C 2.92
R15: C 2.64
P14: L 3.56

Variants of: B2
Experiment: as above
Settings: c terminus: a fixed tail appended

Protein stability index, by site and new letter:
E4: R 3.76; D 3.89; Y 2.25; F 2.79; C 2.93; S 3.41; H 3.21; A 3.77; Q 4.02; M 3.42; L 3.81; T 3.75; G 3.23; I 3.73; V 3.63; W 2.93; K 4.13; P 3.68; N 4.34
E17: G 5.32; L 4.24; F 2.87; N 4.54; C 4.63; K 4.67; A 4.14; D 5.55; M 4.02; H 3.44; I 3.46
E6: G 2.73; Q 3.46; H 2.91; T 3.58; I 3.62; N 3.15; W 2.62; A 3.06; V 3.81; D 2.98; Y 3.08; M 2.08; K 3; S 3.12; L 2.8; F 2.68; P 4.32; R 3.23; C 2.51
L11: T 5.33; A 5.8; M 3.99; D 5.92; Y 5.51; K 5.55; I 4.98; R 5.22; N 5.25; Q 5.67; G 5.38; V 5.2; S 5.65; F 5.09; C 5.5; W 5; H 5.43; P 5.64; E 4.83
A2: I 2.67; Y 3.1; E 4.6; T 2.8; M 2.8; P 4.03; R 3.29; C 3.17; S 3.42; W 2.88; K 3.04; G 4.06; H 3.23; N 4.25; F 3.45; L 2.93; Q 4.57; V 3.3; D 4.7
V14: K 5.72; P 5.75; N 5.33; T 4.37; R 5.35; G 3.76; W 4.05; C 3.54; M 4.43; E 5.67; Q 5.59; Y 5.05; L 3.82; H 5.7; S 4.42; A 4.05; D 4.74; F 5.01; I 3.57
E3: C 2.65; K 3.18; I 2.79; A 3.04; W 3.43; M 2.71; G 3.52; V 3.22; F 2.45; T 2.83; D 4.29; L 2.76; Y 2.86; S 3.63; R 3.04; Q 2.73; N 3.1; P 2.92; H 3.08
K13: Q 4.55; I 3.5; D 5.76; W 4.21; S 4.54; V 4.33; C 5.11; Y 4.08; E 5.82; H 5.04; F 4.25; P 5.55; G 5.18; T 5.15; R 3.27; A 3.96; N 5.26; L 4.06; M 4.18
A9: D 3.93; K 3.68; W 2.51; M 2.95; T 3.67; H 2.82; N 3.79; I 2.37; G 4.9; S 4.32; R 3.64; L 2.62; F 2.4; Y 3.44; Q 4; C 3.98; E 4.34; V 3.74; P 5.11
T12: F 3.83; A 3.35; Q 3.87; R 3.12; K 3.75; M 2.65; N 3.9; Y 3.39; E 4.22; C 3.63; H 3.51; P 5.06; V 4.06; I 3.51; S 3.75; D 4.91; G 4.8; W 2.1; L 3.08
E5: I 2.98; P 4.18; D 3.91; L 2.64; G 2.97; S 2.35; C 2.46; R 2.89; Y 3.06; V 1.62; F 2.34; M 2.48; W 2.42; T 2.71; H 2.44; K 2.75; A 2.3; Q 3.35; N 2.28
E1: K 3.06; V 3.58; W 2.01; H 3.07; D 3.74; M 2.53; T 2.79; C 2.89; A 3.63; S 2.97; N 2.5; P 3.43; R 2.63; Y 3.35; G 3.02; I 1.94; L 2.57; F 2; Q 3.76
R8: Q 3.96; V 3.97; E 4.84; A 4.23; M 3.79; C 4.16; G 4.55; S 4.79; L 3.6; Y 3.41; D 4.91; N 4.51; I 3.83; H 3.91; K 4.59; T 5.17; P 5.43; W 2.59; F 3.66
L7: F 5.23; T 5.39; S 5.58; Q 5.62; G 5.14; C 4.93; D 5.5; P 5.55; A 5.44; K 5.49; I 5.39; V 5.77; H 5.2; N 5.41; R 5.49; M 5.21; Y 5.29; E 5.74; W 4.92
E10: G 5.34; S 3.49; N 4.91; C 4.84; P 5.46; L 2.96; D 4.36; Y 4.05; T 3.21; M 3.3; Q 3.98; H 4.38; R 4.11; V 2.72; A 3.05; K 4.91; I 2; F 3.64
E15: N 5.27; H 5.12; Y 3.24; M 2.91; V 2.8; Q 4.9; C 3.94; G 5.31; D 5.55; W 3.03; L 1.83; I 1.81; F 3.61; K 5.01; R 4.72; T 4.63; S 4.39; P 5.04; A 4.41
E16: V 3.27; G 4.84; W 2.66; C 3.82; A 3.85; L 3.06; M 2.59; S 3.46; D 4.17; T 4.33; I 2.61; Q 3.52; K 3.25; P 4.79; F 2.76; Y 1.82; R 2.79; H 3.87; N 3.93

Source: the supplement of paper PMC10567573
